The series concerns the molecule itself. Description: migration on a gel, blot (Supplementary Fig. 8c); without reducing agent; sample and gel conditions not shown.

B1: CLCC1 (natural protein, human, UniProt Q96S66 19-551, looked up)
chain: HDDDWIDPTDMLNYDAASGTMRKSQAKYGISGEKDVSPDLSCADEISECYHKLDSLTYKIDECEKKKREDYESQSNPVFRRYLNKILIEAGKLGLPDENKGDMHYDAEIILKRETLLEIQKFLNGEDWKPGALDDALSDILINFKFHDFETWKWRFEDSFGVDPYNVLMVLLCLLCIVVLVATELWTYVRWYTQLRRVLIISFLFSLGWNWMYLYKLAFAQHQAEVAKMEPLNNVCAKKMDWTGSIWEWFRSSWTYKDDPCQKYYELLLVNPIWLVPPTKALAVTFTTFVTEPLKHIGKGTGEFIKALMKEIPALLHLPVLIIMALAILSFCYGAGKSVHVLRHIGGPESEPPQALRPRDRRRQEEIDYRPDGGAGDADFHYRGQMGPTEQGPYAKTYEGRREILRERDVDLRFQTGNKSPEVLRAFDVPDAEAREHPTVVPSHKSPVLDTKPKETGGILGEGTPKESSTESSQSAKPVSGQDTSGNTEGSPAAEKAQLKSEAAGSPDQGSTYSPARGVAGPRGQDPVSSPCG
notes: CLCC1, human
By stoichiometry N is commonly meant a count of units in the complex or per binding partner. On to B1, for which the “stoichiometry N” value is 2.

Values taken from article PMC13061601, “CLCC1 promotes hepatic neutral lipid flux and nuclear pore complex assembly” (Nature, 2026).
